Experimental data as given in patent US20250042994A1 (HAINAN SIMCERE ZAIMING PHARMACEUTICAL, published 2025).

T1: Human CD19-his protein (human, UniProt P15391 20-291)
T1 construct: bought protein; also called recombinant human CD19-His; CD19 full-length protein; not shown: His tag
T1 sequence (looked up): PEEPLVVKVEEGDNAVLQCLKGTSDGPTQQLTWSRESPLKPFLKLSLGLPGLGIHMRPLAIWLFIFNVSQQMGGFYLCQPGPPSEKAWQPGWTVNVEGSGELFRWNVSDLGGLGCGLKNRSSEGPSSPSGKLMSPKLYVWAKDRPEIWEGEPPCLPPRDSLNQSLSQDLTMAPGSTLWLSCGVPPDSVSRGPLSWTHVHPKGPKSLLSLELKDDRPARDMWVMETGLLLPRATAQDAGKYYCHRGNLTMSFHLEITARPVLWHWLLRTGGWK

T2: human CD19 on CHO-K1-human CD19 cells (human, UniProt P15391 20-556)
T2 construct: whole, on cells; also called CHO-K1-human CD19-2C8
T2 sequence (looked up): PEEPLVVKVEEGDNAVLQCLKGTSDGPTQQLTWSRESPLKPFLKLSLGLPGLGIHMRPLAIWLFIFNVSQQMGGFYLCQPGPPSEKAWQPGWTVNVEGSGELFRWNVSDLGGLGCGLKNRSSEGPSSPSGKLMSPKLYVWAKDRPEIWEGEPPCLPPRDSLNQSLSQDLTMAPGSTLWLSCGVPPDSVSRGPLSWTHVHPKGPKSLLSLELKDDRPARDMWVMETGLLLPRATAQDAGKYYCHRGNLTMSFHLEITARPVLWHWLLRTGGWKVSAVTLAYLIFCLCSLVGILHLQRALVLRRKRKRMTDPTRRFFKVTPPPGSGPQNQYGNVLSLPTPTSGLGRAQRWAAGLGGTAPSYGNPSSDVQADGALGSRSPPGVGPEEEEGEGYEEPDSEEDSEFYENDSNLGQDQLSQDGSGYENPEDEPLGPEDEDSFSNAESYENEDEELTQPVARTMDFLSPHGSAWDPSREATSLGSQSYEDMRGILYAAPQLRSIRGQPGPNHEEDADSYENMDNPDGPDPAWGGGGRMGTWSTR

T3: human CD19 on Raji cells (human, UniProt P15391 20-556)
T3 construct: whole, on cells
T3 sequence (looked up): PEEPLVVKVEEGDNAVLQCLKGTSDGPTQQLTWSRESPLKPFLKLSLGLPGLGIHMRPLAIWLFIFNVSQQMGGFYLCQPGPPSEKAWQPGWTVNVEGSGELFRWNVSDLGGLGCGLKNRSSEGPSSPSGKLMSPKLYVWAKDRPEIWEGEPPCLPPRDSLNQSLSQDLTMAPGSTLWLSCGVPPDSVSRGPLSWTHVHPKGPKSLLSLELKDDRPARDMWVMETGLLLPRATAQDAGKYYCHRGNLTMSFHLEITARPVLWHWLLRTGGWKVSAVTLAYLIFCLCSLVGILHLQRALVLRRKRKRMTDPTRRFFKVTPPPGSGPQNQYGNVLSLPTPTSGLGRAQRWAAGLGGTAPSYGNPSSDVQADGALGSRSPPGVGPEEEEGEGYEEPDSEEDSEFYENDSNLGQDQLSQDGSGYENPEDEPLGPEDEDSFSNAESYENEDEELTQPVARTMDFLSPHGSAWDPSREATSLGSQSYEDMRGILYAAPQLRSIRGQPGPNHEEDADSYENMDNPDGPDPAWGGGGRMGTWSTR

T4: human CD19 exon1-3-His tag protein (human, UniProt P15391 20-186, limits assumed)
T4 construct: membrane-distal part of the extracellular region, made in HEK293E cells; not shown: His tag
T4 sequence (looked up): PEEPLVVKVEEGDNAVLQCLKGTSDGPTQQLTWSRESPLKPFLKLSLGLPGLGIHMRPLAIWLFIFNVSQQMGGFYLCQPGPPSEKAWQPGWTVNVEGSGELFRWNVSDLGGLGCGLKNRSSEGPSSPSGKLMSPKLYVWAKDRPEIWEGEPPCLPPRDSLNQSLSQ


What was measured:
Human CD19-his protein [1] = biological target: T1, Human CD19-his protein; assay: ELISA on coated human CD19-His
[2] = biological target: T2, human CD19 on CHO-K1-human CD19 cells; assay: FACS on CHO-K1-human CD19 cells
human CD19 on Raji cells = biological target: T3, human CD19 on Raji cells; assay: FACS on Raji cells
Human CD19-his protein [3] = biological target: T1, Human CD19-his protein; assay: SPR Biacore, method of example 7.1, human CD19-His
Summary of the method: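 Antibody captured on Protein A chip; recombinant human CD19-His injected for 240 s at 30 μl/min, five 1:1 dilutions from 200 nM, dissociation up to 600 s.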

Human CD19-his protein [4] = biological target: T1, Human CD19-his protein; assay: ELISA, coated human CD19-His
[5] = biological target: T4, human CD19 exon1-3-His tag protein; assay: ELISA, coated human CD19 exon 1-3-His
[6] = biological target: T4, human CD19 exon1-3-His tag protein; assay: ELISA on coated human CD19 exon 1-3-His
Human CD19-his protein [7] = biological target: T1, Human CD19-his protein; assay: SPR Biacore, Ab captured on Protein A, CD19-His analyte
Summary of the method: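 Antibodies were captured on a Protein A chip at 25 °C in HBS-EP+. Human CD19-His was injected for 240 s at 30 μl/min at 5 concentrations from 200 nM (1:1 dilutions), with dissociation up to 600 s. Data were double-referenced and fitted to a Langmuir 1:1 model for apparent KD.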

Binder	EC50 (read off the curve) (Human CD19-his protein [1])	EC50 [2]	Maximum mean fluorescence intensity [2]	EC50 (human CD19 on Raji cells)	Maximum mean fluorescence intensity (human CD19 on Raji cells)	Kd (Human CD19-his protein [3])	koff (Human CD19-his protein [3])	kon (Human CD19-his protein [3])	OD450 at 0.0001 nM (Human CD19-his protein [4])	OD450 at 0.001 nM (Human CD19-his protein [4])	OD450 at 0.01 nM (Human CD19-his protein [4])	OD450 at 0.10 nM (Human CD19-his protein [4])	OD450 at 1.00 nM (Human CD19-his protein [4])	OD450 at 10 nM (Human CD19-his protein [4])	OD450 at 100 nM (Human CD19-his protein [4])	OD450 at 0.0001 nM [5]	OD450 at 0.001 nM [5]	OD450 at 0.01 nM [5]	OD450 at 0.10 nM [5]	OD450 at 1.00 nM [5]	also measured
F3.121.4-L3H3 (antibody, mouse IgG1, kappa, humanized antibody of F3.121.4, VL3+VH3, murine IgG1 constant regions) heavy: EVQLVQSGAEVKKPGASVKVSCKASGYTFTNYWMHWVRQRPGQGLEWMGEIDPSDNYANYNQEFQGRVTITVDKSASTAYMELSSLRSEDTAVYYCARHDGYFGALDYWGQGTTVTVSSAKTTPPSVYPLAPGSAAQTNSMVTLGCLVKGYFPEPVTVTWNSGSLSSGVHTFPAVLQSDLYTLSSSVTVPSSTWPSETVTCNVAHPASSTKVDKKIVPRDCGCKPCICTVPEVSSVFIFPPKPKDVLTITLTPKVTCVVVDISKDDPEVQFSWFVDDVEVHTAQTQPREEQFNSTFRSVSELPIMHQDWLNGKEFKCRVNSAAFPAPIEKTISKTKGRPKAPQVYTIPPPKEQMAKDKVSLTCMITDFFPEDITVEWQWNGQPAENYKNTQPIMDTDGSYFVYSKLNVQKSNWEAGNTFTCSVLHEGLHNHHTEKSLSHSPGK light: EIVLTQSPDFQSVTPKEKVTITCSASSSISSNYLHWYQQKPDQSPKFLIYRTSNLASGVPSRFSGSGSGTDFTLTINSLEAEDAATYYCQQASSIPRMFTFGQGTKLEIKRADAAPTVSIFPPSSEQLTSGGASVVCFLNNFYPKDINVKWKIDGSERQNGVLNSWTDQDSKDSTYSMSSTLTLTKDEYERHNSYTCEATHKTSTSPIVKSFNRNEC	~0.05 nM	1.16 nM	51800 MFI	0.45 nM	32200 MFI	0.0088 nM	1.04e-06 s⁻¹	118000 M⁻¹ s⁻¹	0.1 OD450	0.15 OD450	0.43 OD450	1.65 OD450	2.28 OD450	2.22 OD450	2.19 OD450	0.05 OD450	0.05 OD450	0.05 OD450	0.05 OD450	0.05 OD450	OD450 at 10 nM [5]: 0.05 OD450; OD450 at 100 nM [5]: 0.08 OD450
F3.121.4-L3H4 (antibody, mouse IgG1, kappa, humanized antibody of F3.121.4, VL3+VH4, murine IgG1 constant regions) heavy: EVQLQQSGAEVKKPGASVKVSCKASGYTFTNYWMHWVRQRPGQGLEWMGEIDPSDNYANYNQEFQGRVTITVDKSASTAYMELSSLRSEDTAVYYCARHDGYFGALDYWGQGTTVTVSSAKTTPPSVYPLAPGSAAQTNSMVTLGCLVKGYFPEPVTVTWNSGSLSSGVHTFPAVLQSDLYTLSSSVTVPSSTWPSETVTCNVAHPASSTKVDKKIVPRDCGCKPCICTVPEVSSVFIFPPKPKDVLTITLTPKVTCVVVDISKDDPEVQFSWFVDDVEVHTAQTQPREEQFNSTFRSVSELPIMHQDWLNGKEFKCRVNSAAFPAPIEKTISKTKGRPKAPQVYTIPPPKEQMAKDKVSLTCMITDFFPEDITVEWQWNGQPAENYKNTQPIMDTDGSYFVYSKLNVQKSNWEAGNTFTCSVLHEGLHNHHTEKSLSHSPGK light: EIVLTQSPDFQSVTPKEKVTITCSASSSISSNYLHWYQQKPDQSPKFLIYRTSNLASGVPSRFSGSGSGTDFTLTINSLEAEDAATYYCQQASSIPRMFTFGQGTKLEIKRADAAPTVSIFPPSSEQLTSGGASVVCFLNNFYPKDINVKWKIDGSERQNGVLNSWTDQDSKDSTYSMSSTLTLTKDEYERHNSYTCEATHKTSTSPIVKSFNRNEC	~0.05 nM	1.05 nM	50500 MFI	0.43 nM	32500 MFI	0.225 nM	2.51e-05 s⁻¹	112000 M⁻¹ s⁻¹	0.11 OD450	0.16 OD450	0.51 OD450	1.68 OD450	2.31 OD450	2.26 OD450	2.31 OD450	0.06 OD450	0.06 OD450	0.06 OD450	0.06 OD450	0.06 OD450	OD450 at 10 nM [5]: 0.07 OD450; OD450 at 100 nM [5]: 0.11 OD450
F3.121.4 (antibody, human IgG1, V domains shown, human-murine chimeric antibody, human IgG1 constant; also called chimeric antibody F3.121.4) VH: QVQLQQPGAELVVPGTSVKLSCKASGYTFTNYWMHWVKQRPGQGLEWIGEIDPSDNYANYNQEFQGKATLTVDKSSSTAYMQLSSLTSDDSAVYYCARHDGYFGALDYWGQGTSVTVSS VL: EIVLTQSPTTMAASPGEKITITCSASSSISSNYLHWYQQKPGFSPKFLIYRTSNLASGVPARFSGSGSGTSYSLTIGTMEAEDVATYYCQQASSIPRMFTFGSGTKLEIK	~0.1 nM	0.3 nM	53700 MFI	0.31 nM	32900 MFI	1.15 nM	0.000375 s⁻¹	327000 M⁻¹ s⁻¹	0.05 OD450	0.06 OD450	0.11 OD450	0.5 OD450	0.88 OD450	1.04 OD450	0.82 OD450	0.05 OD450	0.05 OD450	0.05 OD450	0.05 OD450	0.05 OD450	binding result [6]: no binding (tested: 100 nM); OD450 at 10 nM [5]: 0.05 OD450; OD450 at 100 nM [5]: 0.07 OD450; Kd (Human CD19-his protein [7]): 1.15 nM; koff (Human CD19-his protein [7]): 0.000375 s⁻¹; kon (Human CD19-his protein [7]): 327000 M⁻¹ s⁻¹
